Legend:
[1] = Specific activity of purified TDO proteins, second hydroxylation of mesotrione; type: biochemical; conditions: purified His6-tagged protein from E. coli, FIG. 8
Source text: Activity was expressed as nmol/min/mg protein and was the mean of three separate assays on the same enzyme sample (technical reps).
To test the hypothesis, the four amino acids of sorghum TDO corresponding to amino acid positions 230, 301, 332, and 335 in rice TDO were replaced with those of rice TDO. The corn, rice, sorghum, and the modified sorghum TDO genes were cloned into a pET28 vector for E. coli expression with His6 tag in the N-terminus. Subsequently, the proteins were expressed and purified by affinity chromatography. BL21-CodonPlus (DE3)-RIPL E. coli cells (Stratagene) were used for expression. Cells transformed with expression vector were grown in autoinduction media (AIM) supplemented with 100 μg mL-1 kanamycin and 34 μg mL-1 chloramphenicol.
TDO proteins used in this study were expressed in AIM cells using an auto-induction system as described by Studier (2014). Briefly, the recombinant cultures were grown at 37° C. for 3 hours and then 20° C. for one or two days. Cells were harvested by centrifugation and frozen at −80° C. The pellet was resuspended in lysis buffer (Bper and Yper [Pierce] with ratio 3 to 1, 25 mM Tris-HCl, 300 mM NaCl, 10 mM imidazole, pH 8.0). 150 mM ferric ammonium citrate (1000X) was added to the lysate to a final concentration of 150 µM and incubated on ice for 20 minutes. The lysate was centrifuged to clarify the supernatant. Clear supernatant was loaded onto a 5 mL Ni column connected to AKTA Express (GE Healthcare). […] Protein concentrations were determined spectrophotometrically based on their calculated molar absorption extinction coefficients at 280 nm.
TDO activity was measured by the second hydroxylation of mesotrione. For routine activity measurements of TDO and determining the kinetic properties of the second hydroxylation, the continuous change in A330, which is specific to the second hydroxylation and subsequent non-enzymatic water removal (i.e. the conversion of hydroxy-mesotrione to oxy-mesotrione), was monitored. […] The reaction proceeded until the maximum A330 was obtained (usually 20-120 minutes depending upon the concentration of mesotrione) and the linear portion of the curve was determined by visual inspection. […]
For the activity calculation, aliquots of the reaction were removed at various time points during the reaction and heated at 95° C. to halt the reaction. The reaction mixtures were analyzed by HPLC and mass spectrophotometry. By product conversation followed by peak integration on HPLC, a linear plot was obtained and the extinction co-efficient delta between the substrate (mesotrione) and the second product (oxy-mesotrione) was obtained according to the equation ΔA330=(εp-εs)*bΔp where ΔA330 is the change of absorbance at 330 nm and b is the light path.

[2] = test system: transgenic soybean plants; test: Mesotrione tolerance assay of Os.TDO transgenic soybean events (Construct 32); type: in vivo; conditions: for injury rate: sprayed at V1, rated 13 days after treatment
Source text: Mesotrione herbicide rate is expressed as grams active ingredient per hectare (g a.i./ha); 1X commercial rate=105 g a.i./ha. […] Plants at V1 growth stage were sprayed with mesotrione (in Callisto®, Syngenta in 1% crop oil) at 1X, 2X, 4X, 8X, and 16X of commercial rate (equivalent to 105, 210, 420, 840, and 1680 g a.i./ha, respectively). Crop injury ratings were taken 13 days after mesotrione treatment.
Os.TDO transgenic event-125 and wild-type control plants were sprayed with 2X of commercial rate of mesotrione (Callisto, 210 g a.i./ha), tembotrione (Laudis, 184 g a.i./ha) and sulcotrione (Sulcogan, 660 g a.i./ha). Each bar represents the mean of injury rating of 8 reps +/−SE. * indicates significant difference vs corresponding control at p<0.01.
The Os.TDO sequence was cloned into a set of binary vectors using standard cloning methods known in the art with its expression driven by different constitutive promoters and different 3′UTRs. Transgenic soybean plants comprising these constructs were developed using an Agrobacterium-mediated transformation system as described in Larue et al. (2020). The copy number of the transgene was determined via a Taqman assay and events with a single copy of the T-DNA insertion were selected for evaluation of mesotrione tolerance. Briefly, R2 and later generation homozygous lines of three soybean transgenic events derived from Construct 32 were selected for a mesotrione tolerance greenhouse assay. Construct 32 contained two expression cassettes between the T-DNA borders: one for expression of Os.TDO and the other for expression of a selectable marker. The Os.TDO cassette utilized the cauliflower mosaic virus (CaMV) 35S promotor and the 5′ UTR of HSP70 from petunia to drive expression of Os.TDO, followed by the 3′ UTR of the nopaline synthase (nos) gene from the T-DNA region of the Ti plasmid of Agrobacterium tumefaciens, which functions to direct polyadenylation of the mRNA. The selectable marker cassette conferring spectinomycin and streptomycin resistance comprises the promoter, intron, and leader sequences from the Arabidopsis thaliana actin 7 gene, the transit peptide region of Arabidopsis thaliana EPSPS, the coding region of the Tn7 adenylyltransferase (AAD (3″)) gene from E. coli, and the 3′ non-translated region from the Agrobacterium tumefaciens nopaline synthase gene.
Each plant was grown in a 3.5″ pot with soybean potting media in a growth chamber under conditions of 28° C./24° C. (light/dark) and a photoperiod of 16 hr light at 700 μE/8 hr dark, and fertilized with Peters general purpose fertilizer. Eight plants at V1 growth stage were sprayed with mesotrione (in Callisto®, Syngenta in 1% crop oil) at 1X, 2X, 4X, 8X, and 16X of commercial rate (equivalent to 105, 210, 420, 840, and 1680 g active ingredient/ha, respectively). Crop injury ratings were taken 13 days after mesotrione treatment.

B1: Os.TDO: TDO from Oryza sativa (HIS1), SEQ ID NO:2, polynucleotide codon optimized for dicot expression (protein, listed as Oryza sativa)
chain: MADESWRAPAIVQELAAAGVEEPPSRYLLREKDRSDVKLVAAELPEPLPVVDLSRLDGAEEATKLRVALQNWGFFLLTNHGVEASLMDSVMNLSREFFNQPIERKQKFSNLIDGKNFQIQGYGTDRVVTQDQILDWSDRLHLRVEPKEEQDLAFWPDHPESFRDVLNKYASGTKRIRDDIIQAMAKLLELDEDYFLDRLNEAPAFARFNYYPPCPRPDLVFGIRPHSDGTLLTILLVDKDVSGLQVQRDGKWSNVEATPHTLLINLGDTMEVMCNGIFRSPVHRVVTNAEKERISLAMLYSVNDEKDIEPAAGLLDENRPARYRKVSVEEFRAGIFGKFSRGERYIDSLRI
[1]
  specific activity of the second hydroxylation: highest activity
[2]; 2X commercial rate sulcotrione (Sulcogan, 660 g a.i./ha), event-125
  tolerance to sulcotrione: provided tolerance
[2]; 2X commercial rate tembotrione (Laudis, 184 g a.i./ha), event-125
  tolerance to tembotrione: provided tolerance
[2]; mesotrione 16X (1680 g a.i./ha)
  injury rate: below 15%
[2]; mesotrione at 8X or lower rate (1X=105 g a.i./ha), three transgenic events
  injury rate: lower than 10%
[2]; up to 16X of commercial application rate (1X=105 g a.i./ha)
  tolerance to mesotrione: excellent tolerance
